Experimental data reported in publication PMC2845550, “Heterologous expression of leader-less pga gene in Pichia pastoris: intracellular production of prokaryotic enzyme” (BMC Biotechnology, 2010).

How the values were obtained:
purified protein [1] = substrate: O=C(Cc1ccccc1)Nc1ccc([N+](=O)[O-])c(C(=O)O)c1; assay: purified protein; format: biochemical, Escherichia coli; settings: 50 mM phosphate buffer, pH 8, 37 °C, substrate 7-2000 μM
purified protein [2] = substrate: CC1(C)S[C@@H]2[C@H](NC(=O)Cc3ccccc3)C(=O)N2[C@H]1C(=O)O; assay: purified protein; format: biochemical, Escherichia coli; settings: 37 °C, substrate 5-100 μM

B1: PGAEc (Escherichia coli) (protein)
chain 1: EQSSSEIKIVRDEYGMPHIYANDTWHLFYGYGYVVAQDRLFQMEMARRSTQGTVAEVLGKDFVKFDKDIRRNYWPDAIRAQIAALSPEDMSILQGYADGMNAWIDKVNTNPETLLPKQFNTFGFTPKRWEPFDVAMIFVGTMANRFSDSTSEIDNLALLTALKDKYGVSQGMAVFNQLKWLVNPSAPTTIAVQESNYPLKFNQQNSQTA
chain 2: SNMWVIGKSKAQDAKAIMVNGPQFGWYAPAYTYGIGLHGAGYDVTGNTPFAYPGLVFGHNGVISWGSTAGFGDDVDIFAERLSAEKPGYYLHNGKWVKMLSREETITVKNGQAETFTVWRTVHGNILQTDQTTQTAYAKSRAWDGKEVASLLAWTHQMKAKNWQEWTQQAAKQALTINWYYADVNGNIGYVHTGAYPDRQSGHDPRLPVPGTGKWDWKGLLPFEMNPKVYNPQSGYIANWNNSPQKDYPASDLFAFLWGGADRVTEIDRLLEQKPRLTADQAWDVIRQTSRQDLNLRLFLPTLQAATSGLTQSDPRRQLVETLTRWDGINLLNDDGKTWQQPGSAILNVWLTSMLKRTVVAAVPMPFDKWYSASGYETTQDGPTGSLNISVGAKILYEAVQGDKSPIPQAVDLFAGKPQQEVVLAALEDTWETLSKRYGNNVSNWKTPAMALTFRANNFFGVPQAAAEETRHQAEYQNRGTENDMIVFSPTTSDRPVLAWDVVAPGQSGFIAPDGTVDKHYEDQLKMYENFGRKSLWLTKQDVEAHKESQEVLHVQR
notes: mature periplasmic heterodimer cut from 846-residue preproprotein; homologous expression in E. coli RE3(pKA18), untagged
B1 gave a Km (purified protein [1]) of 28 µM, a Vmax (purified protein [1]) of 15000 µM/min and a kcat (purified protein [1]) of 1.6 s⁻¹. For the same protein, the Km (purified protein [2]) was 34 µM and the kcat (purified protein [2]) was 13.6 s⁻¹.
